Assay results taken from PMC9592583.

Target: proMbxA (6H-MbxA, non-acylated precursor of the RTX toxin MbxA from Moraxella bovis) (Moraxella bovis)
Test: SEC-MALS; proMbxA species of SEC peak 1, 1.3-2.5 mg/ml, 200 ul on Superose 6 Increase 10/300 GL; 50 mM TRIS pH 7.8, 100 mM NaCl, 10 mM CaCl2

## proMbxA (6H-MbxA, non-acylated precursor of the RTX toxin MbxA from Moraxella bovis) (natural protein)
  stoichiometry N: 2
